Consider one protein from FireProtDB (doi:10.1111/j.1432-1033.1988.tb14214.x).

For the data set the following is noted: Bos taurus; pH 7.1; 25 °C; Urea; CD; PIPES 20 mM; reversible: yes; whole UniProt chain shown.

B1: Protein S100-G wild type, P02633 (protein)
chain: MSAKKSPEELKGIFEKYAAKEGDPNQLSKEELKLLLQTEFPSLLKGPSTLDELFEELDKNGDGEVSFEEFQVLVKKISQ
B1: the denaturant m value was 0.91 kcal/mol/M, the “denaturant midpoint (higher = more stable)” value was 5.2 M and the unfolding free energy is 4.78 kcal/mol.
